Experiment: soluble on expression in E. coli; label from the status in PepcDB or PDB records

Sequence	soluble on expression in E. coli
MTDKTIAFSLLDLAPIPEGSSAREAFSHSLDLARLAEKRGYHRYWLAEHHNMTGIASAATSVLIGYLAANTTTLHLGSGGVMLPNHLPLVIAEQFGTLNTLYPGRIDLGLGRAPGSDQRTMMALRRHMSGDIDNFPRDVAELVDWFDARDPNPHVRPVPGYGEKIPVWLLGSSLYSAQLAAQLGLPFAFASHFAPDMLFQALHLYRSNFKPSARLEKPYAMVCINIIAADSNRDAEFLFTSMQQAFVKLRRGETGQLPPPIQNMDQFWSPSEQYDVQQALSMSLVGDKAKVRHGLQSILRETDADEIMVNGQIFDHQARLHSFELAMDVKEELLG	not soluble
MPFTPSEIKNKEFTRVKNGLEPTEVANYLEQLSNEIERLKEDKKQLEKVIEDRDSNIKSYKDVHQSVSDALIQAQKVGEETKQAATKEAEAVLSKAQVQADSIVNDAIEKARRLAFQTEDMKRQSKVFRSRFRMLVEAQLDLLKSEDWDYLLNYDLDAEQVTLEDIHHLHDNDLTPEERAMKQKQNQEISANQPSTSSSESVSQSNANNESSQSTSNN	soluble
MGSDKIHHHHHHMGLEDLYLSWPKWFSEALARYSSLEGALEGVEEIYYCGMGGSGAAGDYIEALLSIYAPQGPEFRVVKDFRPPRPPRHRGYGLVLASYSGNTLETVECGSLLSPAAGRVVAVTSGGRLLEMAKERGWLVARLPGGILPRVSFPWMLAASTAMLSGALGVDLEALKRLAGGLDTQGLKGEAERLAGFISRYRIASLVTCGPGIPLAVRLKNELAENAKMPSRLEIYPESSHNDIVALEAAEGLYGAVFIWIEHEGSLCPAVLDVVEGIYREYGVDTISIESSARGGPNATVAEYLSRTLVFGLASVRLALMRGFNPEETPPIDKYKRRLGEALRSQA	not soluble
MGSDKIHHHHHHMAHADIFNAIYTNKVWGNGSGEGSAEELTRDYRKFLHNFLRANHIRSVVDLGCGDWQFSRHMDWSGIEYCGIDVSSVVLETTRNFSAPNIRFQEMNGIEGELPSADLLICKDVVQHWSNTDILQLFPKLPRFRLALITNAFHPAITENQDIVTGDFRPLNLLAKPFDIKGSYIYCFMAGEPKGVFLWSRGD	not soluble
MIEEPVDDVIKHGPKTGTPETKTVEIPFETKREFNPKLQPGEERVKQEGQPGSKTITTPITVNPLTGEKVGEGQPTEEITKQPVDKIVEFGGEKPKDPKGPENPEKPSRPTHPSGPVNPNNPGLSKDRAKPNGPVHSMDKNDKVKKSKIAKESVANQEKKRAELPKTGLESTQKGLIFSSIIGIAGLMLLARRRKN	not soluble
MELSLSRVHFPVTTLGPGRRLGIWFQGCSIRCPGCISADTWGPGRRRIALARLLADIQPWLEQAEGITVSGGEPFEQFAALLALLGELRRRSRADILVYSGYPLEHLHAQLEQAAGLIDALISDPYQQHAEQSLALRGSDNQRLSLLTELGRARLGGYQRPLREDDKALDLMFDHDGSVWMAGIPRRDDLLRLQDLLREQGHQLSVSAHRPR	not soluble
MASDYEAVNTNPYGVSDGELGPLKYGARFMNMQQRVIPIGSPSLTTGPGNDLQNTDLISSGNYIGYFGNNNNWGFNNEANWNFTDSRMNYAYQNFYSQIFLPWNEIYEIAKDSDSPSEQAILEIANIVRNIAWLRATDVFGPIAYNSAGDGSIAPKFDSQEVVYRSMLADLSKSVELLNTISYSVMAQYDLIYNGNVQNWVKLANSLMLRIVVRVHFIDETLAKEYITKALDPKNGGVIEDISSEAKIKSSDKMPLLNSMLASVNEYNETRMGATIWGYLDGYKDPRLSAYFTEGTYGSGSWAQTGYFPVAPTNSKSKSETSYSAKFASRPKVDSNSPLYWFRASETYFLKAEAALYNLIGGDPKTFYEQGINISFQEQGVSGVATYLSGTGKPTGLTGSNYKYGTYNHDLSIGNTSPKWDDYTGNLSKQEEQLQKIITQKYLALYPNAVEAWTEYRRTGFPYLMKPMDEAAPGRIGASIEDCRVPERFRFAPTAYNSNPNMAEIPTLLGGGDIGATKLWWVRSNRPKQPNQ	soluble
MGSDKIHHHHHHMHEVVQDYYGKQLQSTEDLKTSACCDVSNMPSWLKPLLANIHDEVLSRYYGCGLVCPALLEGCRILDLGCGSGRDVYALAQLVGSTGHVVGVDMTDEQLAIAKQHQDYHVDKFGYDNVTFLKGYIEKLDELNLDPNSFDIIVSNCVINLSPDKAAVMASVQRLLKPGGEFYFSDVYADRRIPQQLINDPVLYGECLSGALYWKDFERLARHADFLDPRLVEDRPLEITDPLLAAKIGDIQFFSATYRLFKIATLEDACEDHGQAVIYRGTIDQLPHHFNLDKHHAIETGRVFPVCGNTFRMLKESRFAKHFDFIGDDSRHYGIFAGCGDILPFGNQANIVSDSNVGQSVNSGSCC	not soluble
MTNNNQIGENKEQTIFDHKGNVIKTEDREIQIISKFEEPLIVVLGNVLSDEECDELIELSKSKLARSKVGSSRDVNDIRTSSGAFLDDNELTAKIEKRISSIMNVPASHGEGLHILNYEVDQQYKAHYDYFAEHSRSAANNRISTLVMYLNDVEEGGETFFPKLNLSVHPRKGMAVYFEYFYQDQSLNELTLHGGAPVTKGEKWIATQWVRRGTYK	soluble
MGSDKIHHHHHHMMKKIEEARTFISERTNLSPDILIILGSGFGPFIEKVEDPVIIDYKDIPHFPQPTVEGHSGKLVFGRISDKPVMIMAGRFHLYEGHDPATVAFPVYLAKYVGVKGVVVTNAAGAINPEFKPGEIILVRDIINFMFRNPLRGPNDEKIGPRFPDMSSVVDPEWARKIQERLSLKEGVYIGVLGPSYETPAEIRVFEKLGADLVGMSTVPEVIAAKHCGLKVVVFSCVTNMAAGITHGRLSHEEVVRTTKMAQGKIEKALTTAVEVF	soluble
MPGNSGNDRSVVVGRVSGAFGVRGWVKAVSFTDPPVNLVGYRPWTLRRGDAERRADVLEGREHGNAVIVRLQGVDTREQAEALKGFEVTVRRSQLPPPAPGEYYRVDLVGLKVVNLGETVLGEVVDVMETGANDVLVVQGDRERLLPFVQGVFVKSVNLEESRIVVDWDPGFLEHHHHHH	not soluble
MESDTSRTPYNSIYATLKNKKTDGEVVCCVHGRRCSYGKGNQDGKRDDNQYVNLPFLKNQDQIASKLTGKLNKLKIAEEKENKIVPREKPEMMSLNTLVEIARAGEQPRKGRGDKEKRTKKAPVLVDDSQLYVMIGPPSEHPGEPPASEPTETYKTNTIDESTFKGSEALSAYIGVVTLANAENHLTRRGEFALYHLFNPNGRLDTITDKLPLMIVYRTTTKKNRHYSIRTTCDQQFFVDCGYPNVRKHYSLSHLVMFYKTSATCEINPDDTSADSFSWWLE	not soluble
MGHHHHHHSHMKGFTATLFLWTLIFPSCSGGGGGKAWPTHVVCSDSGLEVLYQSCDPLQDFGFSVEKCSKQLKSNINIRFGIILREDIKELFLDLALMSQGSSVLNFSYPICEAALPKFSFCGRRKGEQIYYAGPVNNPEFTIPQGEYQVLLELYTEKRSTVACANATIMCS	not soluble
MENIMKITIINGSPRFKKSNSEILKNYLLNFIKENEINEFFSFSIKLDDDIKTDIYNSDILIFIFPLYVDSIPANLLDLLVRFEDENVINSKTKIYCIVNNGFFEGVQNHLAISQIRCWSKKVNAQWGQGIGVGGGELLSHLKKVPLGQGPLKNLGIILEKFSKNILSLKGDEDIYINPNYPKILYFLQANISWFIEGRKNKLKFRDLFKKILEHHHHHH	not soluble
MDPTQISHLALDIGGTLIKLVYFSANGDYSEESRNGCSVVKGRLCFAKFETRKIDDCLEFIRFNILHHSEVTIQVYSNRMAKATGGGAFKFADLFKEKLGILFDKEDEMCSLVGGVNFLLKTVPREAFTYLDGQKKFVEIDHNDLYPYLLVNIGSGVSMIKVDGDGKYERISGTSLGGGTFLGLGKLLTKCKSFDELLELSHHGNNRVIDMLVGDIYGGTDYSKIGLSSTAIASSFGKAISDGKELEDYQPEDVARSLLRMISNNIGQIAYLNALRFGLKRIFFGGFFIRGLEYTMDTISVAVHFWSRGEAKAMFLRHEGFLGALGAFTSYNDQSHNDLKPHHHTVQRAILNCSGHNFRHIPVTSNLNESETIECSINLV	soluble
MRRAFITGVFFLSEVEFSHEYWMRHALTLAKRAWDEREVPVGAVLVHNNRVIGEGWNRPIGRHDPTAHAEIMALRQGGLVMQNYRLIDATLYVTLEPCVMCAGAMIHSRIGRVVFGARDAKTGAAGSLMDVLHHPGMNHRVEITEGILADECAALLSDFFRMRRQEIKAQKKAQSSTD	soluble
